Measurements from publication PMC9298051, “A phytobacterial TIR domain effector manipulates NAD^+ to promote virulence” (The New Phytologist, 2021).

Experiments:
AbTIR = target: T1, AbTIR (Acinetobacter baumannii, UniProt A0A009IHW8); test: HPLC of reaction products; type: biochemical; conditions: product v-cADPR
T1 construct: gene J512_3302; His-tagged recombinant AbTIR-His

[1] = system: NC(=O)c1ccc[n+]([C@@H]2O[C@H](COP(=O)(O)OP(=O)(O)OC[C@H]3O[C@@H](n4cnc5c(N)ncnc54)[C@H](O)[C@@H]3O)[C@@H](O)[C@H]2O)c1; test: purified protein; conditions: room temperature, 60 min, 1–600 μM NAD+

T1 sequence (A0A009IHW8 whole entry): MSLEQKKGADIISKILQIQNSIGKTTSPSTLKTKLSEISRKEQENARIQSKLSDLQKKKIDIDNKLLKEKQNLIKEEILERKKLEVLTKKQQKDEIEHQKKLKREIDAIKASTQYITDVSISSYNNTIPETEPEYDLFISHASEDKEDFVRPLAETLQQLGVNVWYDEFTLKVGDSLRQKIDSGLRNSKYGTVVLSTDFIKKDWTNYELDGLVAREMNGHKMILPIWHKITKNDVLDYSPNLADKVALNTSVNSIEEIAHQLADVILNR

NC(=O)c1ccc[n+]([C@@H]2O[C@H](COP(=O)(O)OP(=O)(O)OC[C@H]3O[C@@H](n4cnc5c(N)ncnc54)[C@H](O)[C@@H]3O)[C@@H](O)[C@H]2O)c1 [NAD^+]
HPLC of reaction products (AbTIR): NAD^+ hydrolase reactions were conducted with purified HopAM1 and AbTIR

HopAM1 (Pseudomonas syringae pv. tomato str. DC3000)
Km [1]: 174.8 µM
kcat [1]: 0.56 min⁻¹
